Test [1] deals with human IGF1R (insulin-like growth factor 1 receptor) on cells (human) (UniProt P08069). As to the kind of experiment: flow cytometry on CHO-S-hIGF1R cells, antibody 20 µg/mL. For orientation: A flow cytometer gives signals particle by particle.
In test [2] the target is cynomolgus monkey IGF1R on cells (cynomolgus monkey). As to the kind of experiment: flow cytometry on CHO-S-fasIGF1R cells, antibody 20 µg/mL.
Test [3] has as its target T1, human insulin receptor INSR on cells (human, UniProt P06213 28-1382).
T1 construct: Expressed on CHO-S cells; also called hINSR; CHO-S-hINSR cells
Description: flow cytometry on CHO-S-hINSR cells, antibody 20 µg/mL. How it is done:
INSR (insulin receptor) and IGF1R are both members of the superfamily of receptor tyrosine kinases (RTKs). The binding activity of anti-IGF1R antibodies to human IGF1R, human INSR and monkey IGF1R was verified by flow cytometry. Briefly, CHO-S-hIGF1R cells (expressing human IGF1R (SEQ ID NO: 45), CHO-S-fasIGF1R cells (expressing cynomolgus monkey IGF1R (SEQ ID NO: 46) and CHO-S-hINSR (expressing SEQ ID NO: 47) were plated in a 96-well plate at a density of 2×10⁵ cells/well respectively. Purified anti-IGF1R antibody with a concentration of 20 μg/mL was added to each well and was incubated at 4° C. for 30 minutes. Then, after one wash with PBS, the cells were incubated with the secondary antibody Alexa Fluor® 647 anti-human IgG Fcγ (Jackson ImmunoResearch Laboratories, Inc., Cat #: 109-606-170) at 4° C. for 15 minutes before flow cytometry analysis. Human IgG1 was used as ISO control.

T1 sequence (P06213 other isoform, or with tags, fused parts or gaps limits assumed): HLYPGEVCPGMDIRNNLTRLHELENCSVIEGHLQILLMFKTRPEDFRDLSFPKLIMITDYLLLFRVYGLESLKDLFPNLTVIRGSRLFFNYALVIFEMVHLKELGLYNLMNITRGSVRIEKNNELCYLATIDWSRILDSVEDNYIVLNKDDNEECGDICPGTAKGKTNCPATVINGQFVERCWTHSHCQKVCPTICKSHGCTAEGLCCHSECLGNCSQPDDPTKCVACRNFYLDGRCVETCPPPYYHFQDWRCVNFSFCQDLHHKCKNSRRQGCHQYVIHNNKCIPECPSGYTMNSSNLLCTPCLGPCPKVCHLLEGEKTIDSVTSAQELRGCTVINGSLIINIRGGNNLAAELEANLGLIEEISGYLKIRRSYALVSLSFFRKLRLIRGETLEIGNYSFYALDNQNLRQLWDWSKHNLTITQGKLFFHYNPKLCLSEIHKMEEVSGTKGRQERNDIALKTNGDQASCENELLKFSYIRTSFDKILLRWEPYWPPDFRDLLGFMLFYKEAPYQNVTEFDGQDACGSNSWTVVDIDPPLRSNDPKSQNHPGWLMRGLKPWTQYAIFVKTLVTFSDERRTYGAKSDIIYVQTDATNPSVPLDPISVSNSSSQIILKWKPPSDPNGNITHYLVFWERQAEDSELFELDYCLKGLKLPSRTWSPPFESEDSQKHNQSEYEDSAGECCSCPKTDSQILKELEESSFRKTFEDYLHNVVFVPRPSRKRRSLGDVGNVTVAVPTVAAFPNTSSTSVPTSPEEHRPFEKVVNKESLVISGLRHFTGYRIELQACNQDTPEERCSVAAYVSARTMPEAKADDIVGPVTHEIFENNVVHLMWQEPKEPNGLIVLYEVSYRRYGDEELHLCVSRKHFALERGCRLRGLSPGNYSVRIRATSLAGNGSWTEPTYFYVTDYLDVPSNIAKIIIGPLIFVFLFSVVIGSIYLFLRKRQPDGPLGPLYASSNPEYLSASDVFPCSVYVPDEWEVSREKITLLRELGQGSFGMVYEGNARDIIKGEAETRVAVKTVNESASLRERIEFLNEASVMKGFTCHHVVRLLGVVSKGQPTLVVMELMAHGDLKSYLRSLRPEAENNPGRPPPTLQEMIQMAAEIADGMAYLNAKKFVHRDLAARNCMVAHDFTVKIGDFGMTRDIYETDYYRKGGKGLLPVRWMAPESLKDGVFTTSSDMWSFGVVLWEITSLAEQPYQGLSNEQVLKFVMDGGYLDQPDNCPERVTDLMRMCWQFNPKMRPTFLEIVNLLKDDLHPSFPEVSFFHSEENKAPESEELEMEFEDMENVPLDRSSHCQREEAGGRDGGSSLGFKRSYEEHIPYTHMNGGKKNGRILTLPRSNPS
human IGF1R (insulin-like growth factor 1 receptor) on cells (human), sequence (P08069 31-1367 limits assumed): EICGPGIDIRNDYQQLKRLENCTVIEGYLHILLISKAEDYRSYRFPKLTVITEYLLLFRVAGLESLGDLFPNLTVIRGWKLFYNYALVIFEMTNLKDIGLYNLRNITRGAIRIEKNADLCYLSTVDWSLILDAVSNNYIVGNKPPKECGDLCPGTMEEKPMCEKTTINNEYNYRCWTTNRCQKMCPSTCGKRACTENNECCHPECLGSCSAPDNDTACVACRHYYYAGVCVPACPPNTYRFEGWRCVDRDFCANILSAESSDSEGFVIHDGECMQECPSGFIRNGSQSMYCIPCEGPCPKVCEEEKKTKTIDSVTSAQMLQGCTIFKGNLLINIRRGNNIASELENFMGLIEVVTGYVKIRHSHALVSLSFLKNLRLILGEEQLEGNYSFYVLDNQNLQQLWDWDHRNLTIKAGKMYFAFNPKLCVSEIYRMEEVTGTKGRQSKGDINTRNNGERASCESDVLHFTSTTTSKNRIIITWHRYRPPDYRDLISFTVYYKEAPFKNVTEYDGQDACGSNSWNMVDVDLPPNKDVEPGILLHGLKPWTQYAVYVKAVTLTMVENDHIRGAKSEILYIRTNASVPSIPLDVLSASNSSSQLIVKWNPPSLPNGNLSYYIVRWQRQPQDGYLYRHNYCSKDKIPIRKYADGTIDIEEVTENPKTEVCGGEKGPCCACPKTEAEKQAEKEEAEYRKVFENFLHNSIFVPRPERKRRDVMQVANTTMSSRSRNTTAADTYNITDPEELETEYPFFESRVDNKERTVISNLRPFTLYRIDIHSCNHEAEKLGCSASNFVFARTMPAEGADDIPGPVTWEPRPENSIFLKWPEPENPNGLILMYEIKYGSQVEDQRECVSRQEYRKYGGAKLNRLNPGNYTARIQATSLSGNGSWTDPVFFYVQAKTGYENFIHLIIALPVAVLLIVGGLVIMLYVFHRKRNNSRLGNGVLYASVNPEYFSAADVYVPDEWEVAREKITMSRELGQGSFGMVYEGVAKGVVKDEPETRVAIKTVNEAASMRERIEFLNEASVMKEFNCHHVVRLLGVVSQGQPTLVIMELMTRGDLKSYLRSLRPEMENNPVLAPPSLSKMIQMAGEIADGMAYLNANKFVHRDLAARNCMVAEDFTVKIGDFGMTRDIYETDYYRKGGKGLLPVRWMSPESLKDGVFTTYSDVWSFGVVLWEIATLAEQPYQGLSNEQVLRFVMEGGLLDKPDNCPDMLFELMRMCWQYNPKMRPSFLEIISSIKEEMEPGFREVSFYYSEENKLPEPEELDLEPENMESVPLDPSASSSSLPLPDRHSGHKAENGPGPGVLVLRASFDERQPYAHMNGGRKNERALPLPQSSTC
cynomolgus monkey IGF1R on cells (cynomolgus monkey), sequence (P08069 other isoform, or with tags, fused parts or gaps limits assumed): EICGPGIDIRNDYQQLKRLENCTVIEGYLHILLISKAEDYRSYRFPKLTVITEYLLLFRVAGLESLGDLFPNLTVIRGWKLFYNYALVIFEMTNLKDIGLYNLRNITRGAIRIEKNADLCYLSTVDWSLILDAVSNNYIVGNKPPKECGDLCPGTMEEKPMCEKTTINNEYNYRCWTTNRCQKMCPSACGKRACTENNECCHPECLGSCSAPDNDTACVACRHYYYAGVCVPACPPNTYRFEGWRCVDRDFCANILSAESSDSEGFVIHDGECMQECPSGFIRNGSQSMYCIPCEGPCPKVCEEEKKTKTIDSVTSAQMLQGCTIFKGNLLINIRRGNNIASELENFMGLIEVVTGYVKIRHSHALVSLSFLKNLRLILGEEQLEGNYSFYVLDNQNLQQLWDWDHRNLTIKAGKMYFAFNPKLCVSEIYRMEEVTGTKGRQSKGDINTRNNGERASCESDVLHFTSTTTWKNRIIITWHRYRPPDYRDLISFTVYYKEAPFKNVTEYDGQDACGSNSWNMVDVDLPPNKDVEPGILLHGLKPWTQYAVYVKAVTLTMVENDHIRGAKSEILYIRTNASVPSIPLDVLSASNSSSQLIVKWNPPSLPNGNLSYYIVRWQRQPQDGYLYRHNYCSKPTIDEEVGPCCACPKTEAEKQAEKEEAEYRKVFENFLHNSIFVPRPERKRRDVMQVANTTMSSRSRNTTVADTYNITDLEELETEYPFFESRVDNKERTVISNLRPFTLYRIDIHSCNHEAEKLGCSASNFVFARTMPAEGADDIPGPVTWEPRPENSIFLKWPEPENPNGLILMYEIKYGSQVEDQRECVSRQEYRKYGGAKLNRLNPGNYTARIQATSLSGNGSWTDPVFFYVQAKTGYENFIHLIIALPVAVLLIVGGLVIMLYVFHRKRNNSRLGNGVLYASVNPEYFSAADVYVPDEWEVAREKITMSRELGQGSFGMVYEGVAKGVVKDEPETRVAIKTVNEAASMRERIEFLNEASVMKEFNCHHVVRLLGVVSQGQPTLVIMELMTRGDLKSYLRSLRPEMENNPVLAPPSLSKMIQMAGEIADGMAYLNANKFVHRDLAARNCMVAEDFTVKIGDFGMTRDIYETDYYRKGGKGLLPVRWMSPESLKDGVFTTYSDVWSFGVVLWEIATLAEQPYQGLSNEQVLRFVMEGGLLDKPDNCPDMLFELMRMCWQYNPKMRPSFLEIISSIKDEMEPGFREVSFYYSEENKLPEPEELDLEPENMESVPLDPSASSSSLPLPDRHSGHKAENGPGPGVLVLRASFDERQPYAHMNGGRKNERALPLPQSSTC

Regarding Human IgG1 ISO control (antibody), the Percentage of positive cells in test [1] turned out to be 0.7%; in test [2] it was 0.3%; in test [3], 0.4%.

B1: Teprotumumab analog (antibody, V domains shown)
VH: QVELVESGGGVVQPGRSQRLSCAASGFTFSSYGMHWVRQAPGKGLEWVAIIWFDGSSTYYADSVRGRFTISRDNSKNTLYLQMNSLRAEDTAVYFCARELGRRYFDLWGRGTLVSVSS
VL: EIVLTQSPATLSLSPGERATLSCRASQSVSSYLAWYQQKPGQAPRLLIYDASKRATGIPARFSGSGSGTDFTLTISSLEPEDFAVYYCQQRSKWPPWTFGQGTKVESKR
notes: also called positive control
In the case of B1, the “Percentage of positive cells” value in test [3] is 1.5%.

Values taken from US20260258141A1 (BIOCYTOGEN PHARMACEUTICALS BEIJING, published 2026).
